In assay [1] the target is T1, human FcRn (R&D Systems Cat. No. 8639-Fc) (human, UniProt P55899 24-297; P61769 21-119). The assay can be described thus: SPR, FcRn captured; Expt 3. (In general: SPR reads the build-up and loss of mass on a sensor chip optically.)
Assay [2] addresses T1, human FcRn (R&D Systems Cat. No. …). The assay is described as follows: SPR, FcRn captured; Expt 2.
For assay [3] the target is unchanged. The assay can be described thus: SPR, FcRn captured; Mean.
Assay [4] shares this target. The assay can be described thus: SPR, FcRn captured; Expt 1.
Assay [5] has as its target T2, Human C1q (Sigma Cat. No. 20476), HRP-labelled (human, UniProt P02745 23-245; P02746 28-253; P02747 29-245).
T2 construct: Coupled to horse-radish peroxidase with Lightning-Link kit; also called HRP-labelled C1q
The assay can be described thus: ELISA, antibody coated, HRP-C1q; Expt 1, buffer alone 0.061. Background: In an ELISA, binding on a coated surface is turned into a signal by an enzyme label.

The target of assay [6] is T3, Histidine-tagged recombinant human FcγRI (CD64) (human, UniProt P12314 16-288, limits assumed).
T3 construct: bought
The assay is described as follows: SPR, His-FcγRI captured; Expt 1.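 Note: SPR at 25 °C on anti-His antibody chip capturing FcγRI, Fc-variant antibodies injected at 100 µg/mL for 1 min, signal near end of injection minus buffer blank.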

Assay [7] deals with T3, Histidine-tagged recombinant human …. The assay is described as follows: SPR, His-FcγRI captured; mean.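 Note: biacore T200 SPR at 25 °C, anti-His surface capturing FcγRI, Fc-variant antibodies injected at 100 µg/mL for 1 min, signal near injection end minus third buffer blank, three repeats.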
For assay [8] the target is unchanged. The assay is described as follows: SPR, His-FcγRI captured; Expt 2.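 Note: biacore T200 SPR at 25 °C, Fc-variant antibodies at 100 µg/mL flowed 1 min over anti-His-captured receptor, signal read near injection end minus third buffer blank; antibody analyte injected at 100 µg/mL for 1 min.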
For assay [9] the target is unchanged. The assay can be described thus: SPR, His-FcγRI captured; Expt 3.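 Note: biacore T200 SPR at 25 °C, Fc-variant antibodies at 100 µg/mL flowed 1 min over anti-His-captured FcγRI, signal taken just before injection end minus a buffer blank cycle; antibody analyte injected at 100 µg/mL for 1 min.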

Where a chain is given by its changes, count along the chain named. Numbers in names are those of the source.

T1 sequence (P55899 24-297 limits assumed, chain 1 of 2): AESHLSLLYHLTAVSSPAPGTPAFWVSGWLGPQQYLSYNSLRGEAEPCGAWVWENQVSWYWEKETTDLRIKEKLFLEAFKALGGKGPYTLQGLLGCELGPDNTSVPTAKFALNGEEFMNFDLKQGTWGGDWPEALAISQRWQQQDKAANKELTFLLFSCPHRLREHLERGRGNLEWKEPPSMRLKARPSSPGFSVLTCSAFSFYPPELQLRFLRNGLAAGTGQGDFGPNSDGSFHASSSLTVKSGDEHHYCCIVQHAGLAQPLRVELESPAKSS
T1 sequence (P61769 21-119 limits assumed, chain 2 of 2): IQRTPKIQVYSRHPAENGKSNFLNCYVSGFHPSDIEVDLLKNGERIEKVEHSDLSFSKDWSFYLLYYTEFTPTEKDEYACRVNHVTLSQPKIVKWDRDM

B1: anti-CD20 (rituximab) human IgG1 L234A/L235A/K322A (antibody)
heavy: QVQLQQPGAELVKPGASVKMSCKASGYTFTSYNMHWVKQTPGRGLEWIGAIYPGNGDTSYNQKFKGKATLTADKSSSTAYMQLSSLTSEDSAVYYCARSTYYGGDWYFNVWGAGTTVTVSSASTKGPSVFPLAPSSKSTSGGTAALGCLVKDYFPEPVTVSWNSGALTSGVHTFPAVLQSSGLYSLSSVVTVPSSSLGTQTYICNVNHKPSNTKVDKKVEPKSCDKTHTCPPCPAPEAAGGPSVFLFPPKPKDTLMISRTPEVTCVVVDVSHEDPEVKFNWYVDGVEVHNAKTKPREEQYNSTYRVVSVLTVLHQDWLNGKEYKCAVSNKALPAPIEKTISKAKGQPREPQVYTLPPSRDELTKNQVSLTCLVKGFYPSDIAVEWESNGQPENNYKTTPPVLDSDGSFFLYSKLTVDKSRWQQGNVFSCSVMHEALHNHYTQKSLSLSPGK
light: QIVLSQSPAILSASPGEKVTMTCRASSSVSYIHWFQQKPGSSPKPWIYATSNLASGVPVRFSGSGSGTSYSLTISRVEAEDAATYYCQQWTSNPPTFGGGTKLEIKRTVAAPSVFIFPPSDEQLKSGTASVVCLLNNFYPREAKVQWKVDNALQSGNSQESVTEQDSKDSTYSLSSTLTLSKADYEKHKVYACEVTHQGLSSPVTKSFNRGEC
notes: EU numbering; also called 2-74; copies: 2 + 2
For the molecule B1, the “Corrected and normalised response (% of wild-type reference)” value in assay [1] is 93.3 % of wild-type reference; in assay [2] it was 94.7 % of wild-type reference; in assay [3], 94 % of wild-type reference; in assay [4], 94 % of wild-type reference.

B2: anti-CD20 (rituximab) human IgG1 L234S/L235H/G236R (antibody)
heavy: QVQLQQPGAELVKPGASVKMSCKASGYTFTSYNMHWVKQTPGRGLEWIGAIYPGNGDTSYNQKFKGKATLTADKSSSTAYMQLSSLTSEDSAVYYCARSTYYGGDWYFNVWGAGTTVTVSSASTKGPSVFPLAPSSKSTSGGTAALGCLVKDYFPEPVTVSWNSGALTSGVHTFPAVLQSSGLYSLSSVVTVPSSSLGTQTYICNVNHKPSNTKVDKKVEPKSCDKTHTCPPCPAPESHRGPSVFLFPPKPKDTLMISRTPEVTCVVVDVSHEDPEVKFNWYVDGVEVHNAKTKPREEQYNSTYRVVSVLTVLHQDWLNGKEYKCKVSNKALPAPIEKTISKAKGQPREPQVYTLPPSRDELTKNQVSLTCLVKGFYPSDIAVEWESNGQPENNYKTTPPVLDSDGSFFLYSKLTVDKSRWQQGNVFSCSVMHEALHNHYTQKSLSLSPGK
light: B1 light
notes: EU numbering; also called 2-48; copies: 2 + 2
Consider B2, for which the “Mean Absorbance” value in assay [5] was 0.04 absorbance (450 nm).

B3: anti-CD20 (rituximab) human IgG1 L234F/L235E/P331S (antibody)
heavy: B2 heavy with S238F, H239E, R240G, P335S
light: B1 light
notes: EU numbering; also called 2-75; copies: 2 + 2
Turning to B3, the “Corrected and normalised response (% of wild-type reference)” value in [1] was 96.3 % of wild-type reference; in assay [2] it was 97.1 % of wild-type reference; in assay [3], 96.5 % of wild-type reference; in [4] it was 96.1 % of wild-type reference.

B4: anti-CD20 (rituximab) human IgG1 L234R/L235I/G236R (antibody)
heavy: B2 heavy with S238R, H239I
light: B1 light
notes: EU numbering; also called 2-39; copies: 2 + 2
On to B4, for which, in assay [5], the “Mean Absorbance” value was 0.169 absorbance (450 nm).

B5: anti-CD20 (rituximab) human IgG1 L234Q/L235V/G236R (antibody)
heavy: B2 heavy with S238Q, H239V
light: B1 light
notes: EU numbering; copies: 2 + 2
Take B5: the “Corrected and normalised response (% of wild-type reference)” value in [1] is 97.4 % of wild-type reference; in assay [2] it was 96.6 % of wild-type reference; in assay [3], 97.1 % of wild-type reference; in assay [4], 97.3 % of wild-type reference. In addition, the “Mean Absorbance” value in assay [5] is 0.032 absorbance (450 nm).

B6: anti-CD20 (rituximab) human IgG1 L234D/L235K/G236R (antibody)
heavy: B2 heavy with S238D, H239K
light: B1 light
notes: EU numbering; also called 2-7; 1-23; copies: 2 + 2
In the case of B6, the “Corrected and normalised response (% of wild-type reference)” value in [1] is 94.1 % of wild-type reference; in [2], 93.7 % of wild-type reference; in [3], 94.3 % of wild-type reference; in assay [4], 94.9 % of wild-type reference. Moreover, the “Mean Absorbance” value in assay [5] is 0.049 absorbance (450 nm).

B7: anti-CD20 human IgG1 L234T/L235I/G236R (antibody)
heavy: B2 heavy with S238T, H239I
light: B1 light
notes: also called 2-57; 1-157
Take B7: the “Corrected response (RU)” value came to 7.2 RU in assay [6], 17.3 RU in assay [8] and 24.2 RU in assay [9]. For the same molecule, the “Corrected response (RU), Mean” value in assay [7] came out at 16.2 RU.

B8: anti-CD20 (rituximab) human IgG1 L234K/L235V/G236R (antibody)
heavy: B2 heavy with S238K, H239V
light: B1 light
notes: EU numbering; also called 2-26; 1-91; copies: 2 + 2
Turning to B8, the “Corrected and normalised response (% of wild-type reference)” value in assay [1] is 100 % of wild-type reference; in assay [2], 100 % of wild-type reference; in [3], 101 % of wild-type reference; in [4], 101 % of wild-type reference. Besides, the “Mean Absorbance” value in assay [5] was 0.073 absorbance (450 nm).

B9: anti-CD20 (rituximab) human IgG1 L234T/L235K/G236R (antibody)
heavy: B2 heavy with S238T, H239K
light: B1 light
notes: EU numbering; also called 2-58; copies: 2 + 2
Take B9: the “Corrected and normalised response (% of wild-type reference)” value was 100 % of wild-type reference in assay [1], 100 % of wild-type reference in assay [2], 100 % of wild-type reference in [3] and 99.2 % of wild-type reference in assay [4]. Also, the “Mean Absorbance” value in [5] was 0.126 absorbance (450 nm).

B10: anti-CD20 (rituximab) human IgG1 L234R/L235E/G236R (antibody)
heavy: B2 heavy with S238R, H239E
light: B1 light
notes: EU numbering; also called 2-37; copies: 2 + 2
Regarding B10, the “Corrected and normalised response (% of wild-type reference)” value was 97.8 % of wild-type reference in assay [1], 98.6 % of wild-type reference in [2], 98.4 % of wild-type reference in [3] and 99 % of wild-type reference in [4]. Further, in assay [5], the “Mean Absorbance” value was 0.048 absorbance (450 nm).

B11: anti-CD20 human IgG1 L234T/L235D/G236R (antibody)
heavy: B2 heavy with S238T, H239D
light: B1 light
notes: also called 2-55
For B11, the “Corrected response (RU)” value in assay [6] was determined as 6 RU; in assay [8], 28.9 RU; in [9], 62.3 RU. In addition, the “Corrected response (RU), Mean” value in assay [7] was 32.4 RU.

B12: anti-CD20 (rituximab) human IgG1 L234Q/L235T/G236R (antibody)
heavy: B2 heavy with S238Q, H239T
light: B1 light
notes: EU numbering; also called 1-120; copies: 2 + 2
Take B12: the “Corrected and normalised response (% of wild-type reference)” value in [1] was 95.2 % of wild-type reference; in assay [2] it was 95.1 % of wild-type reference; in assay [3], 95.3 % of wild-type reference; in assay [4], 95.6 % of wild-type reference.

B13: anti-CD20 (rituximab) human IgG1 L234S/L235R/G236R (antibody)
heavy: B2 heavy with H239R
light: B1 light
notes: EU numbering; also called 2-51; copies: 2 + 2
On to B13, for which the “Mean Absorbance” value in assay [5] is 0.037 absorbance (450 nm).

B14: anti-CD20 (rituximab) human IgG1 L234R/L235H/G236R (antibody)
heavy: B2 heavy with S238R
light: B1 light
notes: EU numbering; also called 2-38; copies: 2 + 2
Turning to B14, the “Mean Absorbance” value in [5] was 0.062 absorbance (450 nm).

B15: anti-CD20 (rituximab) human IgG1 L234T/L235R/G236R (antibody)
heavy: B2 heavy with S238T, H239R
light: B1 light
notes: EU numbering; also called 2-61; copies: 2 + 2
For the molecule B15, the “Mean Absorbance” value in assay [5] is 0.047 absorbance (450 nm).

B16: anti-CD20 (rituximab) human IgG1 L234R/L235D/G236R (antibody)
heavy: B2 heavy with S238R, H239D
light: B1 light
notes: EU numbering; copies: 2 + 2
Take B16: the “Corrected and normalised response (% of wild-type reference)” value is 96 % of wild-type reference in [1], 95.4 % of wild-type reference in assay [2], 95.6 % of wild-type reference in assay [3] and 95.5 % of wild-type reference in assay [4]. Further, the “Mean Absorbance” value in [5] was 0.038 absorbance (450 nm).

B17: anti-CD20 (rituximab) human IgG1 L234K/L235R/G236R (antibody)
heavy: B2 heavy with S238K, H239R
light: B1 light
notes: EU numbering; also called 2-23; 1-88; copies: 2 + 2
Turning to B17, the “Corrected and normalised response (% of wild-type reference)” value in [1] is 99.5 % of wild-type reference; in assay [2], 99.6 % of wild-type reference; in assay [3], 100 % of wild-type reference; in [4] it was 101 % of wild-type reference. In addition, the “Mean Absorbance” value in [5] was 0.059 absorbance (450 nm).

B18: anti-CD20 (rituximab) human IgG1 L234R/L235K/G236R (antibody)
heavy: B2 heavy with S238R, H239K
light: B1 light
notes: EU numbering; also called 2-40; copies: 2 + 2
B18: the “Mean Absorbance” value in assay [5] was 0.055 absorbance (450 nm).

B19: anti-CD20 (rituximab) human IgG1 L234K/L235S/G236R (antibody)
heavy: B2 heavy with S238K, H239S
light: B1 light
notes: EU numbering; also called 2-24; 1-89; copies: 2 + 2
Turning to B19, the “Corrected and normalised response (% of wild-type reference)” value in assay [1] was 100 % of wild-type reference; in assay [2], 99.7 % of wild-type reference; in [3], 100 % of wild-type reference; in assay [4] it was 100 % of wild-type reference.

These data come from patent US20230235013A1 (MABSOLVE, published 2023).
